For the test, the target named is T1, caffeine dAb.
T1 construct: Llama-derived
The experiment in a line: peptide phage display panning on the anti-caffeine sdAb, method of Example 6.

T1 sequence (VHH, as listed by the source): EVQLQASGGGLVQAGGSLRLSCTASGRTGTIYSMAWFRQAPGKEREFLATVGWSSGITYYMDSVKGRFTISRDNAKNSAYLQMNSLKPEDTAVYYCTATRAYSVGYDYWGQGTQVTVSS

For ACTYLNSAKC [SEQ ID NO 16], the binding result is “binds”.

As for DLSIGNH (also called DLSIGNH) [SEQ ID NO 13], the binding result is listed as “binds”. On to HDSPTAA (also called HDSPTAA) [SEQ ID NO 14], for which the binding result is “binds”.

In the case of YPDVPLA (also called YPDVPLA) [SEQ ID NO 15], the binding result is recorded as “binds”.

Consider HTLNKPP (also called HTLNKPP) [SEQ ID NO 12], for which the binding result is recorded as “binds”.

The values are drawn from patent US20260085106A1 (AUTOLUS, published 2026).
